Paper PMC8519809 (Cell Reports, 2021)

Tests used:
MERS stem helix peptide = target: T1, MERS stem helix peptide (MERS-CoV); test: crystal structure
T1 chain: DFQDELDEFFKNVST

[1] = target: T2, SARS-CoV-2 stem helix peptide (SARS-CoV-2); test: crystal structure
T2 chain: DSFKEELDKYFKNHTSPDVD

B1: Fab22 (Fab, V domains shown)
VH: EVQLQQPGPVLVKPGASVRMSCKASGYRITDNFMNWVKQSHGKSLEWIGIINPYNGGTKYNQKFKGKATLTVDTSSSTAYMELNSLTSEDSAVYYCTRVRGNDYHGRAMDYWGQGTSVTVSS
VL: DVVLTQTPLSLPVNIGDQASISCKSTKSLLNRDGFTFLDWYLQKPGQSPQLLIYLVSNRFSGVPDRFSGSGSGTDFTLKISRVEAEDLGVYYCFQSNYLFTFGSGTKLEIK
binding result (MERS stem helix peptide): binds

B2: LCmod-Fab22 (Fab, V domains shown)
VH: EVQLQQPGPVLVKPGASVRMSCKASGYRITDNFMNWVKQSHGKSLEWIGIINPYNGGTKYNQKFKGKATLTVDTSSSTAYMELNSLTSEDSAVYYCTRVRGNDYHGRAMDYWGQGTSVTVSS
VL: DVVLTQTPLSLPVNIGDQASISCKSTKSLLNRDGFTFLDWYLQKPGQSPQLLIYLVSNRFSGVPDRFSGSGSGTDFTLKISRVEAEDLGVYYCFQSNYLFTFGSGTKLEIK
binding result [1]: binds
